Test results as given in patent US20140017790A1, “CONTROL AGENT FOR CONTROLLING UNDIFFERENTIATED STATE AND USE THEREOF” (RIKEN, priority 2011, published 2014).

Legend:
Type in all cases: cell-based
STAT3 [1] = assay: Western blotting, phosphorylation of STAT3 in mouse iPS cells; details: CCL2 overexpressed, 24 hours, relative to negative control
Procedure: The mouse iPS cells transfected with the Ccl2 expression vector were cultured for 24 hours in the same manner as in Example 1. After the culture, the mouse iPS cells were washed with PBS, and then were suspended in 100 μl of a mammalian m-PER lysis buffer. The suspension was passed through a 26-gauge needle for 10 minutes to homogenize the cells. Then, the suspension was centrifuged at 13,000 rpm and 4° C. for 5 minutes, and the supernatant was collected. The protein concentration in the supernatant was measured using a Pierce (registered trademark) BCA Protein assay (trade name, Thermo Scientific). Next, the supernatant was subjected to Western blotting to detect a target protein. […] Then, luminescence on the membrane was detected using a Fuji LAS-3000 luminescent image analyzer.
As the primary antibody, an anti-phosphorylated STAT3 antibody (anti-pSTAT3 antibody, commercially available from CST, #9145) was used for the phosphorylated STAT3 (pSTAT3), an anti-STAT3 antibody (CST, #9132) was used for the STAT3 protein, and an anti-GAPDH antibody (Santa Cruz Biotechnology Inc, #25778) was used for GAPDH, which is an expression control. […] Then, the ratio of the phosphorylated STAT3 to the non-phosphorylated STAT3 (pSTAT3/STAT3) was determined. […]

AKT = assay: Western blotting, phosphorylation of AKT in mouse iPS cells; details: CCL2 overexpressed, relative to negative control
Procedure: The mouse iPS cells transfected with the Ccl2 expression vector were cultured for 24 hours in the same manner as in Example 1. After the culture, the mouse iPS cells were washed with PBS, and then were suspended in 100 μl of a mammalian m-PER lysis buffer. The suspension was passed through a 26-gauge needle for 10 minutes to homogenize the cells. Then, the suspension was centrifuged at 13,000 rpm and 4° C. for 5 minutes, and the supernatant was collected. The protein concentration in the supernatant was measured using a Pierce (registered trademark) BCA Protein assay (trade name, Thermo Scientific). Next, the supernatant was subjected to Western blotting to detect a target protein. Specifically, first, the supernatant (total protein: 10 μg) was applied to a Novex Gel electrophoresis system with 4%-12% Bis-Tris gels, and was blotted on a nitrocellulose membrane. Then, the membrane was incubated with a primary antibody against the target protein. After washing the membrane, the membrane was incubated with a labeled secondary antibody labeled with horseradish peroxidase, and a color-developing reaction was caused using a coloring reagent (trade name: ECL plus, GE Healthcare). Then, luminescence on the membrane was detected using a Fuji LAS-3000 luminescent image analyzer. […]

STAT3 [2] = assay: Western blotting, phosphorylation of STAT3 in human iPS cells; details: feeder conditions, 6 days, negative control (bFGF) = 1
Procedure: The human iPS cells were cultured under feeder conditions in the same manner as in Example 8, and the feeder cells were removed 6 days after the start of the culture. Then, in the same manner as in Example 3, the cultured human iPS cells were washed, suspended, homogenized, and centrifuged to collect the supernatant as a cell extract. Thereafter, a target protein was detected by Western blotting in the same manner as in Example 3, except that the above supernatant was used. Furthermore, as a negative control, the target protein was detected by carrying out the same procedures except that bFGF was added instead of the CCL2.
Then, the ratio of the phosphorylated STAT3 to the non-phosphorylated STAT3 (pSTAT3/STAT3) was determined. Assuming that the value of pSTAT3/STAT3 in the negative control was “1”, the relative value was calculated.

human iPS cells = assay: phase-contrast morphology of human iPS cells with JAK or PI3K inhibitor; details: inhibitor not added (DMSO added), 6 days; bFGF(+)/CCL2(-) or bFGF(-)/CCL2(+)
Procedure: As a JAK inhibitor, a JAK inhibitor I (Merck) was used. As PI3K inhibitor, the same LY294002 as used in Example 4 was used. Human iPS cells were cultured for 6 days under feeder conditions in the same manner as in the above item (1), except that not only the CCL2 but also the JAK inhibitor or the PI3K inhibitor further was added to the medium. In the medium, the concentration of the Jak inhibitor was set to 10 ng/ml, and the concentration of the PI3K inhibitor was set to 5 ng/ml.
Furthermore, as a control, the cells were cultured in the same manner as in the above using the following media, respectively: a medium containing bFGF instead of the CCL2 and containing DMSO (5 ng/ml) instead of the inhibitor; and a medium containing bFGF (5 ng/ml) instead of the CCL2 and containing the inhibitor.
The phase-contrast micrographs show the results obtained under the conditions of, from the above: the inhibitor not added (DMSO added); the JAK inhibitor added; and the PI3K inhibitor added.

B1: CCL2: mouse recombinant CCL2 (MCP-1, #479-JE-010, R&D Systems); in Examples 1, 3, 4(1), 5 mouse CCL2 (SEQ ID NO: 3) overexpressed from Ccl2 expression vector (protein, listed as Mus musculus)
chain: MQVPVMLLGLLFTVAGWSIHVLAQPDAVNAPLTCCYSFTSKMIPMSRLESYKRITSSRCPKEAVVFVTKLKREVCADPKKEWVQTYIKNLDRNQMRSEPTTLFKTASALRSSAPLNVKLTRKSEANASTTFSTTTSSTSVGVTSVTVN
- ratio of phosphorylated STAT3 to non-phosphorylated STAT3 (pSTAT3/STAT3) (STAT3 [1]): increased
- phosphorylation of AKT (pAKT/AKT) (AKT): not promoted
- ratio of phosphorylated STAT3 to non-phosphorylated STAT3 (pSTAT3/STAT3), relative value (STAT3 [2]): about 7.5 fold
- undifferentiation potency, cell morphology (human iPS cells): little differentiated cells
